Assay results as given in US20210186964.

Molecular target: Ub-AMC (ubiquitin-AMC), P0CG47
Sequence (P0CG47 whole entry, looked up): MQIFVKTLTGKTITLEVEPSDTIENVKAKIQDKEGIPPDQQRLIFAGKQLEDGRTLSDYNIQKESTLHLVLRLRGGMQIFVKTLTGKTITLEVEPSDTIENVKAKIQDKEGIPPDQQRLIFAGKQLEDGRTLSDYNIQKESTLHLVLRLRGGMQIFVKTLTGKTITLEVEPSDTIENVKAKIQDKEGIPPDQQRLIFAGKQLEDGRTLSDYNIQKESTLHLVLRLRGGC

B1: USP1/UAF1 complex (WT-USP1/UAF1) (protein)
chain 1: MPGVIPSESNGLSRGSPSKKNRLSLKFFQKKETKRALDFTDSQENEEKASEYRASEIDQVVPAAQSSPINCEKRENLLPFVGLNNLGNTCYLNSILQVLYFCPGFKSGVKHLFNIISRKKEALKDEANQKDKGNCKEDSLASYELICSLQSLIISVEQLQASFLLNPEKYTDELATQPRRLLNTLRELNPMYEGYLQHDAQEVLQCILGNIQETCQLLKKEEVKNVAELPTKVEEIPHPKEEMNGINSIEMDSMRHSEDFKEKLPKGNGKRKSDTEFGNMKKKVKLSKEHQSLEENQRQTRSKRKATSDTLESPPKIIPKYISENESPRPSQKKSRVKINWLKSATKQPSILSKFCSLGKITTNQGVKGQSKENECDPEEDLGKCESDNTTNGCGLESPGNTVTPVNVNEVKPINKGEEQIGFELVEKLFQGQLVLRTRCLECESLTERREDFQDISVPVQEDELSKVEESSEISPEPKTEMKTLRWAISQFASVERIVGEDKYFCENCHHYTEAERSLLFDKMPEVITIHLKCFAASGLEFDCYGGGLSKINTPLLTPLKLSLEEWSTKPTNDSYGLFAVVMHSGITISSGHYTASVKVTDLNSLELDKGNFVVDQMCEIGKPEPLNEEEARGVVENYNDEEVSIRVGGNTQPSKVLNKKNVEAIGLLGGQKSKADYELYNKASNPDKVASTAFAENRNSETSDTTGTHESDRNKESSDQTGINISGFENKISYVVQSLKEYEGKWLLFDDSEVKVTEEKDFLNSLSPS
chain 2: not shown
  Km (Ub-AMC deubiquitination assay, USP1/UAF1 complex alone, no DNA): decreasing the Km from 0.79 µM to 0.33 µM
  Km (Ub-AMC deubiquitination assay, USP1/UAF1 complex with fork DNA): decreasing the Km from 0.79 µM to 0.33 µM
